Assay results from publication PMC4778124, “A continuous sirtuin activity assay without any coupling to enzymatic or chemical reactions” (Scientific Reports, 2016).
*: point of attachment. Myristoyl = CCCCCCCCCCCCCC(=O)*

What was measured:
[1] = biological target: human sirtuin 6, His-tagged Sirt6 (1-355) (human) (UniProt Q8N6T7)
[2] = substrate: CC(=O)N[C@@H](CCC(=O)O)C(=O)N[C@@H](C)C(=O)N[C@@H](CC(C)C)C(=O)N1CCC[C@H]1C(=O)N[C@@H](CCCCN)C(=O)N[C@@H](CCCCNC(=O)CCCCCCCCCCNC(=O)c1ccccc1N)C(=O)N[C@@H](Cc1ccc(O)c([N+](=O)[O-])c1)C(=O)NCC(=O)NCC(N)=O; test: purified protein, by the assay type; details: other: Sirt1 500 nM; fluorescence spectrophotometer (footnote a); 37.0 °C
Experimental: The reactions (total volume 100 μl) were measured in black low-binding 96-well microtiter plates (NUNC). Assay-buffer, 500 μM NAD^+ and 0.07–200 μM peptide substrate were pre-incubated at 37 °C for 5 min. The reaction was started by adding human sirtuin (0.01–0.5 μM). The signals were converted into product concentration via calibration lines and the resulting data were evaluated as described above (single fluorescence measurement). […] The reaction mixture for the calibration lines was prepared as described for the single fluorescence measurements.

[3] = substrate: CCCCCCCCCCCCCC(=O)NCCCC[C@H](NC(=O)[C@H](CCCCN)NC(=O)[C@@H]1CCCN1C(=O)[C@H](CC(C)C)NC(=O)[C@H](C)NC(=O)[C@H](CCC(=O)O)NC(C)=O)C(=O)N[C@H](C(=O)NCC(=O)NCC(N)=O)[C@@H](C)O; test: HPLC based activity assay; type: biochemical, human; details: other: HPLC; Sirt3 0.1 µM; pH 7.8; 37.0 °C
Experimental: (§1) For the determination of kinetic constants for all sirtuin mediated reactions solutions containing 20 mM TRIS/HCl pH 7.8, 150 mM NaCl, 5 mM MgCl2 (assay-buffer), 500 μM NAD^+ and varying substrate concentrations (0.5–100 μM) were used. Deacylation was started by adding human sirtuin to reach a final concentration of 0.01–0.5 μM. Enzyme-catalyzed reaction was stopped using TFA (1% final concentration) after 1 min to 180 min of incubation at 37 °C depending on substrate reactivity. The cleavage rate of the different TNFα peptide derivatives was analyzed using analytical reversed phase HPLC. 40 to 80 μl of compounds or reaction solutions were injected and separated using a linear gradient from 5% to 95% solvent B within 6min. The product and substrate peaks were quantified using absorbance at 220 nm or 365 nm (absorption of 3-Nitrotyrosyl moiety). The peak areas were integrated and converted to initial velocity rates calculated from the ratio of product area to total peak area. Linear regression of conversions plotted against time yielded reaction rates in μM/min (relative conversion below 20% of substrate). Non-linear regression according to Michaelis-Menten of the reaction rates at different substrate concentrations yielded KM- and kcat-values using the program SigmaPlot 8 (Systat Software, San Jose, USA). All measurements were done in duplicates.
The reactions were performed with 0.1- 0.5 µM sirtuin, 500 µM NAD^+ and 50µM 13/16. All reactions were done in duplicates (n=2).

[4] = substrate: CC(=O)N[C@@H](CCC(=O)O)C(=O)N[C@@H](C)C(=O)N[C@@H](CC(C)C)C(=O)N1CCC[C@H]1C(=O)N[C@@H](CCCCN)C(=O)N[C@@H](CCCCNC(=O)CCCCCCCCCCNC(=O)c1ccccc1N)C(=O)N[C@@H](Cc1ccc(O)c([N+](=O)[O-])c1)C(=O)NCC(=O)NCC(N)=O; test: Continuous fluorescence assay, substrate kinetics; type: biochemical, human; details: other: FS (fluorescence spectrometer); Sirt3 0.1 µM; 37.0 °C
Experimental: The fluorescence measurements were performed on a Hitachi F-4500 fluorescence spectrophotometer (Tokyo, Japan) at λEx = 310 nm and λEm = 405 nm (slitEx = 5 nm, slitEm = 2.5 nm, PMT = 700 V for 3, 4 and 5 as well as slitEx = 10 nm, slitEm = 10 nm, PMT = 950 V for 4a). Each reaction mixture contained assay-buffer, 0.5 mM NAD^+ and various peptide concentrations (0.1–100 μM) and was preincubated for 5 minutes at 37 °C. The reaction was started by adding human sirtuin (0.1–0.5 μM) and observed for 5–10 minutes. Product formation could be monitored by increase of relative fluorescence. This signal was converted into product concentration via calibration lines. The slope of the linear regression of product formation against time yielded the reaction velocity rates in μM/s. KM and kcat were obtained by non-linear regression according to Michaelis-Menten. All measurements were done in duplicates. For determination of reaction velocity rates in μM/s calibration lines were necessary. […] The reaction mixture was analyzed with HPLC, to control if the entire peptide substrate was turned to product. Additionally the mixture was diluted (0.1–25 μM) and measured with Hitachi F-4500 fluorescence spectrophotometer at the same conditions as described above.
The microtiter plate fluorescence measurements were performed on a Tecan Infinite M200 microplate reader (Maennedorf, Switzerland) at λEx = 320 nm and λEm = 408 nm (lag time 9 μs, integration time […], gain 160, 170 or 182). The reactions (total volume 100 μl) were measured in black low-binding 96-well microtiter plates (NUNC). […] The signals were converted into product concentration via calibration lines and the resulting data were evaluated as described above (single fluorescence measurement). […] The reaction mixture for the calibration lines was prepared as described for the single fluorescence measurements. […] The resulting plots were analyzed by a competitive inhibition and non-competitive inhibition model using the program Sigma Plot 8. […] The negative Ki value can be determined as intersection with the X-axis from these plots.

[5] = substrate: CCCCCCCCCCCCCC(=O)NCCCC[C@H](NC(=O)[C@H](CCCCN)NC(=O)[C@@H]1CCCN1C(=O)[C@H](CC(C)C)NC(=O)[C@H](C)NC(=O)[C@H](CCC(=O)O)NC(C)=O)C(=O)N[C@H](C(=O)NCC(=O)NCC(N)=O)[C@@H](C)O; test: HPLC based activity assay; type: biochemical, human; details: other: HPLC; Sirt5 0.5 µM; pH 7.8; 37.0 °C
Experimental: as §1

human sirtuin 6, His-tagged Sirt6 (1-355) (human), sequence (Q8N6T7 whole entry): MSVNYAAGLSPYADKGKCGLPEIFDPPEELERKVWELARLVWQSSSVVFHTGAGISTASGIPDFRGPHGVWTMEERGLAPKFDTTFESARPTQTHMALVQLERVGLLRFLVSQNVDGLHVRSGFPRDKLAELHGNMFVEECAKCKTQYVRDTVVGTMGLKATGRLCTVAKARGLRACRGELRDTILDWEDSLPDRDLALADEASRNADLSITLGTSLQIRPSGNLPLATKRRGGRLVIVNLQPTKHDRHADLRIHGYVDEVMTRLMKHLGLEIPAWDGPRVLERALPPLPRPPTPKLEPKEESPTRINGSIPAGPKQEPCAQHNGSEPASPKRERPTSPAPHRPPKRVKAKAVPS

B1: myristoylated TNFα-derived peptide 1a (peptide)
peptide: Ac-EALPKK(Myristoyl)TGG-NH2
SMILES: CCCCCCCCCCCCCC(=O)NCCCC[C@H](NC(=O)[C@H](CCCCN)NC(=O)[C@@H]1CCCN1C(=O)[C@H](CC(C)C)NC(=O)[C@H](C)NC(=O)[C@H](CCC(=O)O)NC(C)=O)C(=O)N[C@H](C(=O)NCC(=O)NCC(N)=O)[C@@H](C)O
KM of Sirt6-mediated deacylation, HPLC-based activity assay [1]: 6 µM

B2: Sirt1 (Homo sapiens) (protein)
chain: MADEAALALQPGGSPSAAGADREAASSPAGEPLRKRPRRDGPGLERSPGEPGGAAPEREVPAAARGCPGAAAAALWREAEAEAAAAGGEQEAQATAAAGEGDNGPGLQGPSREPPLADNLYDEDDDDEGEEEEEAAAAAIGYRDNLLFGDEIITNGFHSCESDEEDRASHASSSDWTPRPRIGPYTFVQQHLMIGTDPRTILKDLLPETIPPPELDDMTLWQIVINILSEPPKRKKRKDINTIEDAVKLLQECKKIIVLTGAGVSVSCGIPDFRSRDGIYARLAVDFPDLPDPQAMFDIEYFRKDPRPFFKFAKEIYPGQFQPSLCHKFIALSDKEGKLLRNYTQNIDTLEQVAGIQRIIQCHGSFATASCLICKYKVDCEAVRGDIFNQVVPRCPRCPADEPLAIMKPEIVFFGENLPEQFHRAMKYDKDEVDLLIVIGSSLKVRPVALIPSSIPHEVPQILINREPLPHLHFDVELLGDCDVIINELCHRLGGEYAKLCCNPVKLSEITEKPPRTQKELAYLSELPPTPLHVSEDSSSPERTSPPDSSVIVTLLDQAAKSNDDLDVSESKGCMEEKPQEVQTSRNVESIAEQMENPDLKNVGSSTGEKNERTSVAGTVRKCWPNRVAKEQISRRLDGNQYLFLPPNRYIFHGAEVYSDSEDDVLSSSSCGSNSDSGTCQSPSLEEPMEDESEIEEFYNGLEDEPDVPERAGGAGFGTDGDDQEAINEAISVKQEVTDMNYPSNKS
Km [2]: 0.7 ± 0.08 µM

B3: Sirt3 (Homo sapiens) (protein)
chain: MAFWGWRAAAALRLWGRVVERVEAGGGVGPFQACGCRLVLGGRDDVSAGLRGSHGARGEPLDPARPLQRPPRPEVPRAFRRQPRAAAPSFFFSSIKGGRRSISFSVGASSVVGSGGSSDKGKLSLQDVAELIRARACQRVVVMVGAGISTPSGIPDFRSPGSGLYSNLQQYDLPYPEAIFELPFFFHNPKPFFTLAKELYPGNYKPNVTHYFLRLLHDKGLLLRLYTQNIDGLERVSGIPASKLVEAHGTFASATCTVCQRPFPGEDIRADVMADRVPRCPVCTGVVKPDIVFFGEPLPQRFLLHVVDFPMADLLLILGTSLEVEPFASLTEAVRSSVPRLLINRDLVGPLAWHPRSRDVAQLGDVVHGVESLVELLGWTEEMRDLVQRETGKLDGPDK
notes: made in house
Km [3]: 1.6 ± 0.4 µM | kcat [3]: 4.7∙10^-2 ± 0.3∙10^-2 s^-1 | kcat/Km [3]: 2.95∙10^4 M^-1s^-1 | Km [4]: 2.4 ± 0.2 µM | kcat [4]: 1.2∙10^-2 ± 0.3∙10^-3 s^-1 | kcat/Km [4]: 5.15∙10^3 M^-1s^-1

B4: Sirt5 (Homo sapiens) (protein)
chain: SSSMADFRKFFAKAKHIVIISGAGVSAESGVPTFRGAGGYWRKWQAQDLATPLAFAHNPSRVWEFYHYRREVMGSKEPNAGHRAIAECETRLGKQGRRVVVITQNIDELHRKAGTKNLLEIHGSLFKTRCTSCGVVAENYKSPICPALSGKGAPEPGTQDASIPVEKLPRCEEAGCGGLLRPHVVWFGENLDPAILEEVDRELAHCDLCLVVGTSSVVYPAAMFAPQVAARGVPVAEFNTETTPATNRFRFHFQGPCGTTLPEALACHENETVS
notes: made in house
Km [5]: 16.5 ± 3.1 µM | kcat [5]: 5.7∙10^-3 ± 0.3∙10^-3 s^-1 | kcat/Km [5]: 3.48∙10^2 M^-1s^-1
